How the values were obtained:
Assay in all cases: cell-based or functional assay
[1] = target: HIV-1 Env of pseudovirus MGRM-F1-004 (HIV-1)
[2] = target: HIV-1 Env of pseudovirus MGRM-G-001 (clade G) (HIV-1)
[3] = target: HIV-1 Env of isolate TRO.11 (Acute), clade B, on pseudovirus (HIV-1)
[4] = target: HIV-1 Env of isolate MGRM-D-024 (clade D pseudovirus) (HIV-1)
[5] = target: HIV-1 IAVI-C3 envelope glycoprotein (Env) on pseudovirus (HIV-1)
[6] = target: HIV-1 Env of pseudovirus MGRM-G-013 (HIV-1, clade G isolate MGRM-G-013)
[7] = target: HIV-1 Env of pseudovirus MGRM-F1-023 (HIV-1)
[8] = target: HIV-1 Env of pseudovirus MGRM-AE-005 (clade CRF01_AE) (HIV-1)
[9] = target: HIV-1 envelope glycoprotein (Env) of isolate MGRM-A-012, clade A (HIV-1)
[10] = target: HIV-1 Env of pseudovirus MGRM-AG-012 (clade CRF_AG) (HIV-1)
[11] = target: aMLV envelope protein on pseudovirus (negative control)
[12] = target: HIV-1 Env of pseudovirus MGRM-G-004 (clade G) (HIV-1)
[13] = target: HIV-1 Env of pseudovirus MGRM-Chronic-B-011 (HIV-1)
[14] = target: HIV-1 envelope glycoprotein (Env) of isolate MGRM-A-007, clade A (HIV-1)
[15] = target: HIV-1 Env of pseudovirus MGRM-F1-015 (HIV-1)
[16] = target: HIV-1 Env of isolate MGRM-AE-008 (subtype AE) (HIV-1)
[17] = target: HIV-1 Env of isolate MGRM-AE-001 (subtype AE) (HIV-1)
[18] = target: HIV-1 envelope glycoprotein (Env) of isolate MGRM-C-022 (HIV-1)
[19] = target: HIV-1 NL43 Env (pseudovirus, clade B) (HIV-1)
[20] = target: HIV-1 Env of isolate 98CN006 (HIV-1)
[21] = target: HIV-1 APV6 Env (pseudovirus, clade B) (HIV-1)
[22] = target: HIV-1 94UG103 Env (pseudovirus, clade A) (HIV-1)
[23] = target: HIV-1 Env of isolate 92UG037 (HIV-1)
[24] = target: HIV-1 Env of isolate MG RM-D-005 (HIV-1)
[25] = target: HIV-1 Env of isolate MGRM-A-010 (subtype A) (HIV-1)
[26] = target: HIV-1 Env of isolate MG RM-D-003 (HIV-1)
[27] = target: HIV-1 Env of isolate 92WR024 (HIV-1)
[28] = target: HIV-1 MGRM-C-028 Env (pseudovirus, clade C) (HIV-1)
[29] = target: HIV-1 Env of isolate MGRM-AE-002 (subtype AE) (HIV-1)
[30] = target: HIV-1 envelope glycoprotein (Env) of isolate MGRM-C-028 (HIV-1)
[31] = target: HIV-1 envelope glycoprotein (Env) of isolate MGRM-C-024 (HIV-1)
[32] = target: HIV-1 APV17 Env (pseudovirus) (HIV-1)
[33] = target: HIV-1 envelope glycoprotein (Env) of isolate MGRM-C-014 (HIV-1)
[34] = target: HIV-1 Env of isolate 98IN022 (subtype C) (HIV-1)
[35] = target: HIV-1 Env of isolate MGRM-Chronic-B-020 (subtype B) (HIV-1)
[36] = target: HIV-1 Env of isolate MGRM-D-018 (clade D), on pseudovirus (HIV-1)
[37] = target: HIV-1 Env of isolate MGRM-Chronic-B-001 (subtype B) (HIV-1)

1443_C16 (PG16) (TCN-116) (antibody), sequence (VH): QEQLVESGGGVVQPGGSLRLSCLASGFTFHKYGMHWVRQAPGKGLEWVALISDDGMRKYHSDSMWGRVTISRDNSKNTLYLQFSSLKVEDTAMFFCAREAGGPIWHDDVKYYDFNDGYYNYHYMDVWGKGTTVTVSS
1443_C16 (PG16) (TCN-116) (antibody), sequence (VL): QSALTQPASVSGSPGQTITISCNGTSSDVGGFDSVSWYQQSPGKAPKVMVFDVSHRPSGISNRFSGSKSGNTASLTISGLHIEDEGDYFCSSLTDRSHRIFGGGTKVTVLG

## 4E10 (antibody)
[1]
  IC50 (µg/ml), pseudovirus neutralization: 2.74 µg/mL
[2]
  IC50: 2.04 µg/mL
[3]
  IC50 (µg/ml), pseudovirus neutralization: 1.39 µg/mL
[4]
  IC50 (µg/ml), pseudovirus neutralization: 3.6 µg/mL
[5]
  IC50, pseudovirus neutralization: 5 µg/mL
[6]
  IC50 (µg/ml), pseudovirus neutralization: 1.15 µg/mL
[7]
  IC50 (µg/ml), pseudovirus neutralization: 0.44 µg/mL
[8]
  IC50: 0.47 µg/mL
[9]
  IC50 (µg/ml), pseudovirus neutralization: 4.27 µg/mL
[10]
  IC50: 0.86 µg/mL
[11]
  IC90 (pseudovirus neutralization): > 50 µg/mL
[12]
  IC50: 1.47 µg/mL
[13]
  IC50 (µg/ml), pseudovirus neutralization: 1.07 µg/mL
[14]
  IC50 (µg/ml), pseudovirus neutralization: 1.82 µg/mL
[15]
  IC50 (µg/ml), pseudovirus neutralization: 0.53 µg/mL

## 5147_N06 (PGT-130) (antibody)
[16]
  IC50 (µg/mL), pseudovirus neutralization: > 50 µg/mL
[17]
  IC50 (µg/mL), pseudovirus neutralization: 1 µg/mL
[18]
  IC50 (µg/mL), pseudovirus neutralization: 0.127 µg/mL
[19]
  IC50 neutralization: > 10 µg/mL
[20]
  IC50 (µg/mL), pseudovirus neutralization: 0.258 µg/mL
[21]
  IC50 neutralization: > 10 µg/mL
[22]
  IC50 neutralization: 0.635 µg/mL
[23]
  IC50: 0.061 µg/mL
[24]
  IC50 (µg/mL), pseudovirus neutralization: > 50 µg/mL
[25]
  IC50 (µg/mL), pseudovirus neutralization: 0.005 µg/mL
[26]
  IC50 (µg/mL), pseudovirus neutralization: 0.651 µg/mL
[27]
  IC50: > 50 µg/mL
[28]
  IC50 neutralization: > 10 µg/mL
[29]
  IC50 (µg/mL), pseudovirus neutralization: 1.53 µg/mL
[30]
  IC50 (µg/mL), pseudovirus neutralization: > 50 µg/mL
[31]
  IC50 (µg/mL), pseudovirus neutralization: > 50 µg/mL
[32]
  Neutralization by PGT-130, IC50: > 10 µg/mL
  Neutralization by PGT-130, IC80: > 10 µg/mL
  Neutralization by PGT-130, IC90: > 10 µg/mL
  Neutralization by PGT-130, IC95: > 10 µg/mL
  neutralization IC50 (pseudovirus): > 10 µg/mL
[33]
  IC50 (µg/mL), pseudovirus neutralization: > 50 µg/mL
[34]
  IC50 neutralization: > 50 µg/mL
[35]
  IC50 neutralization: 0.014 µg/mL
[36]
  IC50, pseudovirus neutralization: 0.0378 µg/mL
[37]
  IC50 neutralization: > 50 µg/mL

## 1443_C16 (PG16) (TCN-116) (antibody)
[1]
  IC50 (µg/ml), pseudovirus neutralization: 0.43 µg/mL
[2]
  IC50: 0.15 µg/mL
[3]
  IC50 (µg/ml), pseudovirus neutralization: 0.22 µg/mL
[4]
  IC50 (µg/ml), pseudovirus neutralization: 0.02 µg/mL
[5]
  IC50, pseudovirus neutralization: 14.8 µg/mL
[6]
  IC50 (µg/ml), pseudovirus neutralization: > 50 µg/mL
[7]
  IC50 (µg/ml), pseudovirus neutralization: > 50 µg/mL
[8]
  IC50: 0.02 µg/mL
[9]
  IC50 (µg/ml), pseudovirus neutralization: 20.7 µg/mL
[10]
  IC50: 25.1 µg/mL
[11]
  IC90 (pseudovirus neutralization): > 50 µg/mL
[12]
  IC50: > 50 µg/mL
[13]
  IC50 (µg/ml), pseudovirus neutralization: > 50 µg/mL
[14]
  IC50 (µg/ml), pseudovirus neutralization: 5.91 µg/mL
[15]
  IC50 (µg/ml), pseudovirus neutralization: > 50 µg/mL

## 5343_B08 (PGT-135) (antibody)
[16]
  IC50 (µg/mL), pseudovirus neutralization: > 50 µg/mL
[17]
  IC50 (µg/mL), pseudovirus neutralization: > 50 µg/mL
[18]
  IC50 (µg/mL), pseudovirus neutralization: > 50 µg/mL
[19]
  IC50 neutralization: 6.79 µg/mL
[20]
  IC50 (µg/mL), pseudovirus neutralization: 0.429 µg/mL
[21]
  IC50 neutralization: > 10 µg/mL
[22]
  IC50 neutralization: > 10 µg/mL
[23]
  IC50: 3.67 µg/mL
[24]
  IC50 (µg/mL), pseudovirus neutralization: > 50 µg/mL
[25]
  IC50 (µg/mL), pseudovirus neutralization: > 50 µg/mL
[26]
  IC50 (µg/mL), pseudovirus neutralization: > 50 µg/mL
[27]
  IC50: > 50 µg/mL
[28]
  IC50 neutralization: 2.16 µg/mL
[29]
  IC50 (µg/mL), pseudovirus neutralization: > 50 µg/mL
[30]
  IC50 (µg/mL), pseudovirus neutralization: 1.47 µg/mL
[31]
  IC50 (µg/mL), pseudovirus neutralization: > 50 µg/mL
[32]
  IC50 (neutralizing activity, pseudovirus): > 10 µg/mL
[33]
  IC50 (µg/mL), pseudovirus neutralization: > 50 µg/mL
[34]
  IC50 neutralization: 0.014 µg/mL
[35]
  IC50 neutralization: 0.057 µg/mL
[36]
  IC50, pseudovirus neutralization: 0.0433 µg/mL
[37]
  IC50 neutralization: > 50 µg/mL
